These results are taken from FireProtDB (doi:10.1021/bi00067a022).

B1: Ribonuclease, P00648 (parent)
chain: MMKMEGIALKKRLSWISVCLLVLVSAAGMLFSTAAKTETSSHKAHTEAQVINTFDGVADYLQTYHKLPDNYITKSEAQALGWVASKGNLADVAPGKSIGGDIFSNREGKLPGKSGRTWREADINYTSGFRNSDRILYSSDWLIYKTTDHYQTFTKIR

Variants of B1 are the subject of the data set. Conditions: Bacillus amyloliquefaciens, pH 6.3, 25 °C, Fluorescence, MES 450 mM, reversible: yes, structure 1BNI, whole UniProt chain shown.

As to S132C H149C, where the note is “GdnHCl”, the “ddG of mutation (higher = less stable)” value is -4.1 kcal/mol, the denaturant m value stood at 4.3 kcal/mol/M, the “denaturant midpoint (higher = more stable)” value is 3 M and the unfolding free energy was found to be 12.9 kcal/mol.

A90C S127C: under “Urea”, the “ddG of mutation (higher = less stable)” value is -1.21 kcal/mol, the denaturant m value is 1.73 kcal/mol/M, the “denaturant midpoint (higher = more stable)” value came to 5.77 M and the unfolding free energy stood at 10 kcal/mol.
